This is an account of results in US7598290B2, “Cytotoxic agents comprising new C-2 modified taxanes” (priority 2005, dated 2009).

Usually IC50 stands for the midpoint of a concentration-inhibition curve. Low values mean inhibition by little substance, high ones a need for much substance.

Test [1] relates to human melanoma cells, A-375. The test can be described thus: In vitro potency and specificity, WST-8 assay, antigen negative A-375 cells. It is filed as cell-based. As to conditions: for IC50: A-375 (antigen negative), 4 days incubation, WST-8. As for the experimental part: (§1) In vitro potency and specificity of huC242-Taxoid conjugate. Samples of free taxoid or huC242-Taxoid conjugate were added to a 96-well flat bottomed tissue culture plate and titrated using serial dilutions ranging from 1×10^−12 M to 3×10^−7 M. Human colon tumor cells, COLO 205, or human melanoma cells, A-375, were added to the wells in such a way that there were triplicate samples for each drug concentration for each cell line. The plates were incubated at 37° C. in an atmosphere of 5% CO2 for 4 days.
(§2) At the end of the incubation period, 20 μl of the tetrazolium reagent WST-8 (2-(2-methoxy-nitrophenyl)-3-(4-nitrophenyl)-5-(2,4-disulfophenyl)-2-tetrazolium, monosodium salt]) was added to each well, and the plates were returned to the incubator for 2 hours. The absorbance in each well of the plates was then measured using the Molecular Devices plate reader at 450 nm. Surviving fraction of cells at each concentration of taxoid or conjugate are plotted in FIGS. 2 a,b.
(In general: Tetrazolium assays rely on reduction of a dye to a coloured formazan, in cell work by metabolically active cells.)

Test [2] concerns Human colon tumor cells, COLO 205. The test can be described thus: In vitro potency and specificity, WST-8 assay, antigen positive COLO 205 cells. As to conditions: COLO 205 (antigen positive), 4 days incubation. It is filed as cell-based. As for the experimental part: as §1, §2

`CSSC(C)(C)CCC(=O)O[C@H]1C(=O)[C@@]2(C)[C@H]([C@H](OC(=O)c3ccco3)[C@]3(O)C[C@H](OC(=O)[C@H](O)[C@@H](NC(=O)OC(C)(C)C)c4ccco4)C(C)=C1C3(C)C)[C@]1(OC(C)=O)CO[C@@H]1C[C@@H]2O` [IGT-16-141, 3′-dephenyl-3′-(2-furyl)-2-debenzoyl-2-(2-furoyl)-10-(4,4-dimethyl-4-methyldithiobutanoyl)-docetaxel]: the IC50 is ~800 pM in test [1] (Homo sapiens, 96 h) and ~800 pM in test [2] (Homo sapiens, 96 h).

B1: huC242-taxoid (conjugate, chains of the INN, looked up)
VH: QVQLVQSGAEVKKPGETVKISCKASDYTFTYYGMNWVKQAPGQGLKWMGWIDTTTGEPTYAQKFQGRIAFSLETSASTAYLQIKSLKSEDTATYFCARRGPYNWYFDVWGQGTTVTVSS
VL: DIVMTQSPLSVPVTPGEPVSISCRSSKSLLHSNGNTYLYWFLQRPGQSPQLLIYRMSNLVSGVPDRFSGSGSGTAFTLRISRVEAEDVGVYYCLQHLEYPFTFGPGTKLELK
modifications: taxoid payload conjugate
Consider B1, for which the IC50 was found to be 29000 pM in test [1] and 310 pM in test [2]. Further, in test [1] (A-375 versus COLO 205), the “antigen negative cells less sensitive than COLO 205” value is recorded as “about 94 fold”.
